Assay results taken from patent publication US20240383993A1 (LANOVA MEDICINES, published 2024).

Experiments:
[1] = target: T1, human 4-1BB expressed on cells (human, UniProt Q07011 24-255); experiment: cell-based or functional assay
[2] = target: T1, human 4-1BB expressed on cells; experiment: flow cytometry competition with biotinylated human 4-1BB ligand on CHO-K1/human 4-1BB cells
Procedure: CHO-K1 cells overexpressing human 4-1BB were incubated with biotinylated human 4-1BB ligand (0.3 μg/ml) in the presence of serial diluted anti-41BB nanobodies for 1 h at 4° C. with Ref mAb as the reference antibody. Then, cells were incubated with Alexa Fluor 633-conjugated streptavidin. Binding was measured with an Agilent flow cytometer. As shown in FIG. 2 and Table 3, all of the tested nanobodies could block 4-1BB ligand binding to 4-1BB in a concentration-dependent manner while Ref mAb had no such effect.

[3] = target: T2, His-tagged cynomolgus 4-1BB protein (cynomolgus, UniProt A9YYE7 24-186); experiment: ELISA, coated His-tagged 4-1BB, anti-human IgG-HRP
T2 construct: Coated on ELISA plates at 2 µg/ml; also called Cyno 4-1BB; soluble cynomolgus 4-1BB; not shown: His tag
T2 sequence: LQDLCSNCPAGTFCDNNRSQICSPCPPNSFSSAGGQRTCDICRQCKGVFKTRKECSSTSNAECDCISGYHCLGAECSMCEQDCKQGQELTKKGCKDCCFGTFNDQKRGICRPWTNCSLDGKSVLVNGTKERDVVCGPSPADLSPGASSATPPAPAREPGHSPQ
Procedure: (§1) His-tagged 4-1BB was coated at 2 μg/ml overnight and then blocked by 2% BSA in PBS. Serially diluted anti-4-1BB nanobodies were incubated with the coated antigen for 1h at room temperature with a reference antibody “Ref mAb”. The resulting plates were washed with PBS/T and incubated with goat anti-human IgG-HRP for 1 h at room temperature. The plates were developed with TMB substrate and analyzed by spectrophotometer at OD 450 nm.

[4] = target: T3, His-tagged human 4-1BB protein (human, UniProt Q07011 24-186); experiment: ELISA, coated His-tagged 4-1BB, anti-human IgG-HRP
T3 construct: Coated on ELISA plates at 2 µg/ml; also called hu4-1BB; soluble human 4-1BB; not shown: His tag
Procedure: as §1

[5] = target: T1, human 4-1BB expressed on cells; experiment: flow cytometry on CHO-K1/hu4-1BB cells, anti-human Fc-Alexa Fluor 633
Procedure: (§2) To evaluate the antigen binding property in a cell-based setting, the 4-1BB humanized nanobodies were analyzed for their binding to 4-1BB overexpressed on CHO-K1 cells by FACS.
(§3) Briefly, CHO-K1 cells overexpressing human 4-1BB or cynomolgus 4-1BB were incubated with the serial diluted anti-4-1BB nanobodies for 30 min at 4° C. Then, the cells were incubated with Alexa Fluor 633-conjugated anti-human Fc secondary antibody. Binding was measured with an Agilent flow cytometer.

[6] = target: T4, cynomolgus 4-1BB overexpressed on CHO-K1 cells (cynomolgus, UniProt A9YYE7 24-254); experiment: flow cytometry on CHO-K1/Cyno-41BB cells, anti-human Fc-Alexa Fluor 633
T4 construct: whole, on cells; also called CHO-K1/Cyno-41BB; cell surface cyno 4-1BB
T4 sequence (A9YYE7 entry or part of it): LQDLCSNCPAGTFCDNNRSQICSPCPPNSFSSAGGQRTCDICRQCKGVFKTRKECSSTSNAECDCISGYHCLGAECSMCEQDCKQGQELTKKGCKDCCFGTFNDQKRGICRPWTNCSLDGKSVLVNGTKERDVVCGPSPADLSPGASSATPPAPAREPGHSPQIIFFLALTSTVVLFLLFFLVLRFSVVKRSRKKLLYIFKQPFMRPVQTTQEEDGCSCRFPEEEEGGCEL
Procedure: as §2, §3

T1 sequence (Q07011 24-255): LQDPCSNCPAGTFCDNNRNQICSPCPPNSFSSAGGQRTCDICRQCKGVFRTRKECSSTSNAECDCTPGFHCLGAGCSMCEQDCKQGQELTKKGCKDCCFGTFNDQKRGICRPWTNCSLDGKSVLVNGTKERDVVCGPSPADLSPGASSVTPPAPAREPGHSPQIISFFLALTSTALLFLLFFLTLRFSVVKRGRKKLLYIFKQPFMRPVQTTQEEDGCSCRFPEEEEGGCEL

Binder | EC50 (nM) in Jurkat-41BB NFκB reporter assay [1] | IC50 [2] | EC50 [3] | EC50 [4] | EC50 [5] | Max (MFI) [5] | EC50 [6] | Max (MFI) [6]
VV02-1LP-317 (Fc fusion, not shown: a dimerising Fc or GST; small tags and cut ends, Llama nanobody tested as fusion with human IgG1 Fc (N297A)) VHH: EVDLVESGGGLVQPGGSLRLSCAASGFTFSRSAMSWARQAPGKGFEWVSGIYSGGSTYYVDSVEGRFTISRDNAKNTVYLQMNSLKPEDTAVYYCATWGSQQIGVWHEDDYWGQGTQVTVSS | 0.031 nM | 1.42 nM | 29.3 nM | > 30 nM | – | – | – | –
VV02-2LP-13 (Fc fusion, Llama nanobody tested as fusion with human IgG1 Fc (N297A); not shown: Human IgG1 Fc fragment with N297A, plus the hinge or linker joining it to the nanobody) VHH: AVQLVESGGGLVQPGGSLRLSCAASGFTFSSYAMSWARQVPGKGFEWVAYIYSDGSTYYADSVKGRFTISRDNAKDTVYLHMNSLKFEDMAVYYCATWRSQQVGRWDEYDHWGQGTQVTVSS | 0.036 nM | 0.995 nM | 4.19 nM | > 30 nM | – | – | – | –
VV02-1SP (1)-55 (Fc fusion, not shown: a dimerising Fc or GST; small tags and cut ends, Llama nanobody tested as fusion with human IgG1 Fc (N297A)) VHH: EVQLVESGGGLVQPGGSLRLSCAASGFTFSSSAMSWARQVPGKGFEWVAYIYSDGSTYYADSVKGRFTISRDNAKDTVYLHMNSLKFEDMAVYYCATWRSQQVGRWDEYDYWGQGIQVTVSS | 0.023 nM | 0.573 nM | 1.87 nM | > 30 nM | – | – | – | –
VV02-1SP (1)-358 (Fc fusion, not shown: a dimerising Fc or GST; small tags and cut ends, Llama nanobody tested as fusion with human IgG1 Fc (N297A)) VHH: EVQLVESGGGLVQPGGSLMISCAASGFTFSSSAMSWARQVPGKGFEWVAYIYSDGSTYYADSVKGRFTISRDNAKDTVYLHMNSLKFEDMAVYYCATWRSQQVGRWDKYDYWGQGTQVTVSS | 0.004 nM | 0.988 nM | 0.11 nM | > 30 nM | – | – | – | –
VV02-3LP-83 (Fc fusion, Llama nanobody tested as fusion with human IgG1 Fc (N297A); not shown: Human IgG1 Fc fragment with N297A, plus the hinge or linker joining it to the nanobody) VHH: EVDLVESGGGLVQPGGSLRLSCAASGFTFRSYAMSWARQVPGKGFEWVAYIYSDGSTYYADSVKGRFTISRDNAKDTVYLHMNSLKFEDMAVYYCATWRSQQVGRWDEYDHWGQGTQVTVSS | 0.014 nM | 0.682 nM | 2.03 nM | > 30 nM | – | – | – | –
VV02-1LP-263 huNb_2_3 (Fc fusion, not shown: a dimerising Fc or GST, detection by anti-human Fc) VHH: EVQLVESGGGLVQPGGSLRLSCAASGFTFSSSAMSWARQAPGKGFEWVSGIYSGGSTYYTESVKDRFTISRDNAKNTVYLQMNSLKPEDTAVYYCATWGTLRFGVWAEYDHWGQGTLVTVSS | – | – | – | – | 0.11 nM | 39100 MFI | 0.37 nM | 130000 MFI
VV02-1LP-263 huNb_2_2 (Fc fusion, not shown: a dimerising Fc or GST, detection by anti-human Fc) VHH: EVQLVESGGGLVQPGGSLRLSCAASGFTFSSSAMSWARQAPGKGLEWVSGIYSGGSTYYTESVKDRFTISRDNAKNTLYLQMNSLRPEDTAVYYCATWGTLRFGVWAEYDHWGQGTLVTVSS | – | – | – | – | 0.19 nM | 23400 MFI | 0.64 nM | 86400 MFI
VV02-1LP-263 huNb_3_2 (Fc fusion, not shown: a dimerising Fc or GST, detection by anti-human Fc) VHH: QVQLVESGGGLVKPGGSLRLSCAASGFTFSSSAMSWARQAPGKGFEWVSGIYSGGSTYYTESVKDRFTISRDNAKNSLYLQMNSLRPEDTAVYYCATWGTLRFGVWAEYDHWGQGTQVTVSS | – | – | – | – | 0.14 nM | 38000 MFI | 0.7 nM | 128000 MFI
VV02-1LP-263 huNb_1_2 (Fc fusion, not shown: a dimerising Fc or GST, detection by anti-human Fc) VHH: EVQLLESGGGLVQPGGSLRLSCAASGFTFSSSAMSWARQAPGKGLEWVSGIYSGGSTYYTESVKDRFTISRDNSKNTVYLQMNSLKPEDTAVYYCATWGTLRFGVWAEYDHWGQGTLVTVSS | – | – | – | – | 0.17 nM | 23500 MFI | 0.69 nM | 99600 MFI
VV02-1LP-263 huNb_3_3 (Fc fusion, detection by anti-human Fc; not shown: Fc part, implied only by the anti-human Fc secondary antibody) VHH: QVQLVESGGGLVQPGGSLRLSCAASGFTFSSSAMSWARQAPGKGFEWVSGIYSGGSTYYTESVKDRFTISRDNAKNSVYLQMNSLKPEDTAVYYCATWGTLRFGVWAEYDHWGQGTQVTVSS | – | – | – | – | 0.12 nM | 40300 MFI | 0.7 nM | 149000 MFI
VV02-1LP-263 huNb_1_3 (Fc fusion, not shown: a dimerising Fc or GST, detection by anti-human Fc) VHH: EVQLLESGGGLVQPGGSLRLSCAASGFTFSSSAMSWARQTPGKGFEWVSGIYSGGSTYYTESVKDRFTISRDNSKNTVYLQMNSLKPEDTAVYYCATWGTLRFGVWAEYDHWGQGTQVTVSS | – | – | – | – | 0.11 nM | 42100 MFI | 0.33 nM | 134000 MFI
VV02-1LP-417 (Fc fusion, Llama nanobody tested as fusion with human IgG1 Fc (N297A); not shown: Human IgG1 Fc fragment with N297A, plus the hinge or linker joining it to the nanobody) VHH: QLQLVESGGGLVQPGGSLRLSCAASGFALDYSAIGWFRQAPGKEREGVLCISSSGDVTIYADSVKGRFTISRDNAKNTVYLQMNSLKPEDTAVYYCVAPRICSTYSSDDYWGQGTQVTVSS | 0.081 nM | 2.05 nM | – | 11.1 nM | – | – | – | –
VV02-1LP-288 (Fc fusion, not shown: a dimerising Fc or GST; small tags and cut ends, Llama nanobody tested as fusion with human IgG1 Fc (N297A)) VHH: EVQVVESGGGLVQPGGSLRLSCAASGSSLDYSAIGWFRQAPGKEREGVLCISSSGDVTIYADSVKGRFTISRDNAKNTVYLQMNSLKPEDTAVYYCVAPRICSTYSSDDYWGQGTQVTVSS | 0.052 nM | 2.57 nM | – | > 30 nM | – | – | – | –
VV02-1SP (1)-73 huNb_1_2 (Fc fusion, detection by anti-human Fc; not shown: Fc part, implied only by the anti-human Fc secondary antibody) VHH: EVQLLESGGGLVQPGGSLRLSCAASGFTFSSSAMSWARQAPGKELEWVSSIYSSGKTYYVESVKGRFTISRDNAKNTLYLQMSSLRAEDTAVYYCATWKTLRVGVWDESDYWGQGTLVTVSS | – | – | – | – | 0.8 nM | 5240 MFI | – | –
VV02-1SP (1)-73 huNb_3_1 (Fc fusion, detection by anti-human Fc; not shown: Fc part, implied only by the anti-human Fc secondary antibody) VHH: EVQLVESGGGLVQPGGSLRLSCAASGFTFSSSAMSWARQAPGKGFEWVASIYSSGKTYYVESVKGRFTISRDNAKNSLYLQMNSLRAEDTAVYYCARWKTLRVGVWDESDYWGQGTLVTVSS | – | – | – | – | 27.4 nM | 3700 MFI | – | –
VV02-1SP (1)-73 huNb_2_2 (Fc fusion, detection by anti-human Fc; not shown: Fc part, implied only by the anti-human Fc secondary antibody) VHH: EVQLVESGGGLIQPGGSLRLSCAASGFTFSSSAMSWARQAPGKEFEWVSSIYSSGKTYYVESVKGRFTISRDNAKNTLYLQMSSLRAEDTAVYYCATWKTLRVGVWDESDYWGQGTQVTVSS | – | – | – | – | 0.37 nM | 9270 MFI | – | –
VV02-1SP (1)-73 huNb_3_2 (Fc fusion, detection by anti-human Fc; not shown: Human Fc part, implied only by the anti-human Fc secondary antibody) VHH: EVQLVESGGGLVQPGGSLRLSCAASGFTFSSSAMSWARQAPGKGFEWVSSIYSSGKTYYVESVKGRFTISRDNAKNSLYLQMSSLRAEDTAVYYCATWKTLRVGVWDESDYWGQGTLVTVSS | – | – | – | – | 0.52 nM | 8560 MFI | – | –
VV02-1SP (1)-73 huNb_2_3 (Fc fusion, detection by anti-human Fc; not shown: Fc part, implied only by the anti-human Fc secondary antibody) VHH: EVQLVESGGGLVQPGGSLRLSCAVSGFTFSSSAMSWARQAPGKEFEWVSSIYSSGKTYYVESVKGRFTISRDNAKNTVYLQMSSLRPEDTAVYYCATWKTLRVGVWDESDYWGQGTQVTVSS | – | – | – | – | 0.49 nM | – | – | –
VV02-1SP (1)-73 huNb_3_3 (Fc fusion, detection by anti-human Fc; not shown: Human Fc part, implied only by the anti-human Fc secondary antibody) VHH: EVQLVESGGGLVQPGGSLRLSCAVSGFTFSSSAMSWARQAPGKEFEWVSSIYSSGKTYYVESVKGRFTISRDNAKNSVYLQMSSLRPEDTAVYYCATWKTLRVGVWDESDYWGQGTLVTVSS | – | – | – | – | 0.66 nM | 9630 MFI | – | –
VV02-1SP (1)-73 huNb_1_3 (Fc fusion, detection by anti-human Fc; not shown: Fc part, implied only by the anti-human Fc secondary antibody) VHH: EVDLVESGGGLVQPGGSLRLSCAVSGFTFSSSAMSWARQAPGKEFEWVSSIYSSGKTYYVESVKGRFTISRDNAKNTVYLQMSSLRPEDTAVYYCATWKTLRVGVWDESDYWGQGTLVTVSS | – | – | – | – | 0.61 nM | – | – | –
